Reference: paper PMC4436075 (mBio, 2015)

Biological target: the molecule itself
Assay: cross-linking

B1: Alg44-6His (natural protein, Pseudomonas aeruginosa, UniProt Q9HY69 1-389, looked up)
chain: MNTAVNVNVVHESEAQRQFARVKLPARIRYIGANREGVDARLLDLSAGGFAFTASGAPIQPGDLYKGKLLFQVDSISFSLEVEFQVRSVDPASRRVGCEFQNLKPREVAALRYLITSYLAGEVIGVGDMLNTLQRENFTKARKQGGGNGGMGFFGRVRAVTLSTAIFVVGVGAFAFILNQMYNLYFVTHADSGVVSVPNQQITMPREGTVQSLLGPNAEVAKGAPIATFSANLLDMLKGNLTEEQLNPGNIEKLFGHQMKGTLTSPCDCRVVQQLVADGQYANKGQVIFTLAPRDSVASIEARFPYRNAAELAPGTRVNFQVAGDGVNRSGRIVNTAPVDGDLSSEIRVQIQPDQPLDAQYAGRPAEVSIGGLPGRTLLNKAVTLATAR
stoichiometry N: 2
